For experiment [1], the target named is HLA-A*01:01. In words: IEDB peptide-MHC binding, purified MHC/direct/fluorescence; filed as Kd, often an IC50 or EC50 that approximates it; ≥ and ≤ were set here for values at or beyond the usual limits of such assays. The conditions noted are these: source organism: Escherichia coli O157:H7.
Experiment [2] has as its target HLA-A*02:01. The experiment is described as above. The conditions noted are these: source organism: Escherichia coli O157:H7.
The target in experiment [3] is HLA-A*03:01. The description is as above.
The target of experiment [4] is HLA-A*11:01. The experiment is described as above.
Experiment [5] concerns the target HLA-A*26:01. Described as above. The conditions noted are these: source organism: Escherichia coli O157:H7.
Experiment [6] concerns the target HLA-A*31:01. The description is as above. The conditions noted are these: source organism: Escherichia coli O157:H7.
The target in experiment [7] is HLA-A*69:01. Described as above. The conditions noted are these: source organism: Escherichia coli O157:H7.
In experiment [8] the target is HLA-B*07:02. The description is as above. Particulars: source organism: Escherichia coli O157:H7.
Experiment [9] deals with HLA-B*08:01. The experiment is described as above. Particulars: source organism: Escherichia coli O157:H7.
The target in experiment [10] is HLA-B*15:01. The description is as above. Particulars: source organism: Escherichia coli O157:H7.
Experiment [11] addresses HLA-B*27:05. The description is as above. Particulars: source organism: Escherichia coli O157:H7.
In experiment [12] the target is HLA-B*40:01. Described as above.
Experiment [13] deals with HLA-B*44:02. The experiment is described as above. The conditions noted are these: source organism: Escherichia coli O157:H7.
The target in experiment [14] is HLA-B*58:01. The experiment is described as above. The conditions noted are these: source organism: Escherichia coli O157:H7.
Experiment [15] concerns the target HLA-C*06:02. The description is as above.
For experiment [16], the target named is HLA-C*07:02. Described as above. Particulars: source organism: Escherichia coli O157:H7 str. EDL933.
For experiment [17], the target named is HLA-A*02:01. Put plainly: IEDB peptide-MHC binding, purified MHC/competitive/fluorescence; ≥ and ≤ were set here for values at or beyond the usual limits of such assays.
For experiment [18], the target named is HLA-A*24:02. Described as above.
Experiment [19] deals with HLA-B*07:02. The description is as above.
Experiment [20] has as its target HLA-B*18:01. In words: IEDB peptide-MHC binding, purified MHC/direct/fluorescence; filed as Kd, often an IC50 or EC50 that approximates it; ≥ and ≤ were set here for values at or beyond the usual limits of such assays. The conditions noted are these: source organism: Bordetella avium.
Experiment [21] addresses HLA-C*14:02. The experiment is described as above. Particulars: source organism: Burkholderia vietnamiensis G4.
The target of experiment [22] is HLA-C*15:02. Described as above. The conditions noted are these: source organism: Burkholderia vietnamiensis G4.
In experiment [23] the target is HLA-B*15:42. Put plainly: IEDB peptide-MHC binding, purified MHC/competitive/fluorescence; filed as Kd, often an IC50 or EC50 that approximates it; ≥ and ≤ were set here for values at or beyond the usual limits of such assays.
In experiment [24] the target is HLA-B*45:06. The experiment is described as above.
In experiment [25] the target is HLA-B*46:01. Described as above. Particulars: source organism: Burkholderia vietnamiensis G4.
For experiment [26], the target named is HLA-B*83:01. The experiment is described as above.
The target in experiment [27] is HLA-B*15:01. In words: IEDB peptide-MHC binding, purified MHC/competitive/fluorescence; ≥ and ≤ were set here for values at or beyond the usual limits of such assays.
For experiment [28], the target named is HLA-B*58:01. Put plainly: IEDB peptide-MHC binding, purified MHC/competitive/fluorescence; filed as Kd, often an IC50 or EC50 that approximates it; ≥ and ≤ were set here for values at or beyond the usual limits of such assays.
Experiment [29] concerns the target HLA-A*31:01. The experiment is described as above.
The target of experiment [30] is HLA-B*15:03. Put plainly: IEDB peptide-MHC binding, purified MHC/competitive/radioactivity; filed as Kd, often an IC50 or EC50 that approximates it; ≥ and ≤ were set here for values at or beyond the usual limits of such assays. Particulars: source organism: Vaccinia virus WR.
Experiment [31] has as its target HLA-A*03:01. Put plainly: IEDB peptide-MHC binding, purified MHC/competitive/fluorescence; filed as Kd, often an IC50 or EC50 that approximates it; ≥ and ≤ were set here for values at or beyond the usual limits of such assays. Particulars: source organism: Escherichia coli 101-1.
In experiment [32] the target is HLA-B*51:01. Put plainly: IEDB peptide-MHC binding, purified MHC/direct/fluorescence; filed as Kd, often an IC50 or EC50 that approximates it; ≥ and ≤ were set here for values at or beyond the usual limits of such assays. Particulars: source organism: Helicobacter pylori.
Experiment [33] concerns the target HLA-C*04:01. Put plainly: IEDB peptide-MHC binding, purified MHC/competitive/fluorescence; filed as Kd, often an IC50 or EC50 that approximates it; ≥ and ≤ were set here for values at or beyond the usual limits of such assays. Particulars: source organism: Helicobacter pylori 26695.
Experiment [34] has as its target HLA-A*01:01. The description is as above. The conditions noted are these: source organism: Shigella boydii CDC 3083-94.
Experiment [35] deals with HLA-B*15:01. The experiment is described as above. The conditions noted are these: source organism: Shigella boydii CDC 3083-94.
[36] abbreviates: source organism: Escherichia coli O157:H7.
Where [37] appears, read: source organism: Burkholderia vietnamiensis G4.
Where [38] appears, read: source organism: Sudan ebolavirus.
The mark [39] stands for this setting: source organism: Zaire ebolavirus.
Where [40] appears, read: source organism: dengue virus type 4.
Setting [41] is: source organism: Vaccinia virus.
The mark [42] stands for this setting: source organism: Burkholderia mallei.
Setting [43] is: source organism: Rickettsia typhi.
[44] abbreviates: source organism: Rickettsia typhi str. Wilmington.
Where [45] appears, read: source organism: Helicobacter pylori 26695.

The record followed here is the Immune Epitope Database (IEDB).

Take RRNDVARIF: the dissociation constant Kd in experiment [1], in [2], in experiment [3] (setting [36]), in experiment [4] (setting [36]), in experiment [5] and in [6] was no less than 20 µM throughout. Further, the Kd in experiment [7] is no less than 20 µM; in experiment [8] it was no less than 20 µM; in [9], 1.9 µM; in experiment [10], no less than 20 µM; in experiment [11] it was 0.12 µM; in experiment [12] (setting [36]) it was no less than 20 µM. The Kd in experiment [13] is no less than 20 µM; in [14], no less than 20 µM; in experiment [15] (source organism: Escherichia coli O157:H7 str. EDL933) it was 0.022 µM; in experiment [16], 0.041 µM.

In experiment [15] (source organism: human gammaherpesvirus 4), RRVRRRVLV came in with a Kd of 0.316 µM.

RPVVLTGGT: the results for the IC50 in experiment [17] (source organism: Variola virus), in [18] (source organism: Variola virus) and in experiment [19] (source organism: Variola virus) were no less than 89.9 µM, 0.104 µM and 24.1 µM, respectively.

As for WMRWGGWPF, the Kd in experiment [20] is 4.66 µM; in experiment [12] (source organism: Bordetella avium) it was 0.512 µM; in experiment [15] (setting [37]) it was no less than 20 µM; in experiment [21], 4.72 µM; in experiment [22], no less than 20 µM; in experiment [23] (setting [37]), no less than 5 µM. For the same sequence, the Kd is no less than 5 µM in experiment [24] (setting [37]), 0.418 µM in [25] and no less than 5 µM in [26] (setting [37]).

With FQKAFSMPL, the IC50 in [17] (setting [38]) is 0.784 µM; in [18] (setting [38]), 27.5 µM; in experiment [19] (setting [38]), 16 µM; in experiment [27] (setting [38]), 2.11 µM.

In turn, RSSKLVMRY had a Kd in [28] (source organism: Yersinia pestis Nepal516) of 0.0183 µM.

For LLQRWGGTC, the IC50 in experiment [17] (setting [39]) was 2.49 µM; in experiment [19] (setting [39]) it was no less than 473 µM; in [27] (setting [39]), 41.3 µM.

Take VVTLIPLCR: the Kd worked out at 0.454 µM in experiment [4] (setting [40]) and 0.0301 µM in experiment [29] (setting [40]).

As for FANPLSNPF, the IC50 in experiment [17] (setting [41]) is 2.53 µM; in experiment [18] (setting [41]), 2.78 µM; in experiment [19] (setting [41]), 69.1 µM; in experiment [27] (setting [41]), 5.74 µM. Besides, the Kd in experiment [30] turned out to be 0.00192 µM.

As for LTQRRTTPR, the Kd in experiment [3] (setting [42]) worked out at 1.86 µM; in experiment [4] (setting [42]) it was 0.0526 µM; in experiment [29] (source organism: Burkholderia mallei FMH), 0.0131 µM.

With GTKAWVMNR, the Kd in experiment [31] is 4.5 µM; in experiment [29] (source organism: Escherichia coli 101-1) it was 0.0033 µM.

Regarding KGIHPQNHL, in experiment [28] (source organism: Escherichia coli), the Kd was no less than 20 µM.

As for ARLLNLSGV, the IC50 was 9.98 µM in [17] (setting [39]), 32.8 µM in [18] (setting [39]) and no less than 152 µM in experiment [19] (setting [39]).

LTIPTIMGR: the Kd is 0.93 µM in experiment [3] (setting [43]); 0.003 µM in experiment [4] (setting [43]); 0.00255 µM in [29] (setting [44]); no less than 5 µM in experiment [23] (setting [44]); no less than 5 µM in [24] (setting [44]); no less than 5 µM in experiment [26] (setting [44]).

Regarding LKASGRYQW, the Kd in experiment [28] (source organism: Escherichia coli O139:H28 str. E24377A) came to 0.879 µM.

Take FPIQDFPII: the Kd was 0.156 µM in [32]; no less than 5 µM in experiment [23] (setting [45]); no less than 5 µM in experiment [24] (setting [45]); 2.74 µM in experiment [26] (setting [45]); no less than 5 µM in [33].

As for HSETVIHRY, the Kd was 0.0144 µM in experiment [34], 3 µM in experiment [35] and no less than 20 µM in experiment [28] (source organism: Shigella boydii CDC 3083-94).
